Patent US20030186281A1, “Modified tetracycline repressor protein compositions and methods of use” (priority 2001, published 2003)

Test system: tet operator sequence
Assay: β-galactosidase activity of a tetracycline-regulated promoter in transformed E. coli with revTetR, in the presence and absence of anhydrotetracycline (atc)
Format: cell-based, Escherichia coli
Details: for β-Galactosidase Activity, Cultured Without ATC: RevTetR isolate cultured in the absence of anhydrotetracycline (ATC); for β-Galactosidase Activity, Cultured With ATC: RevTetR isolate cultured in the presence of anhydrotetracycline (ATC)
Experimental: The relative activity of revTetR repressors was determined at 28° C. and 37° C. for each clone by measuring β-galactosidase activity of a tetracycline-regulated promoter in transformed Escherichia coli in the presence and absence of the tetracycline analog, anhydrotetracycline (atc). The relative β-galactosidase activity was measured in standard Miller units and is presented as the percent of maximal expression as measured in the absence of Tet repressor. […] With respect to each mutant, as well as the wild-type controls, FIG. 2 provides two horizontal bars; the upper horizontal bar represents the level of β-galactosidase activity in the absence of anhydrotetracycline (−atc) while the lower horizontal bar represents the level of β-galactosidase activity in the presence of anhydrotetracycline (+atc).
The pool of mutated Tet repressors was cloned into plasmid pWH1411 (Baumeister et al., 1992, Proteins: Struct. Funct. Genet. 14: 168-77), which carries a TetR(B) gene, to provide a TetR(BD) chimera that included, as the amino-terminal portion, amino acid residues 1 to 50 of the TetR(B) gene and, as the carboxyl-terminal portion, amino acid residues 51 to 208 of the TetR(D) gene. The resulting plasmid pool was screened in a genetic assay which positively selects for a functional interaction between a Tet repressor and its cognate operator using E. coli strain WH207(λWH25) (the construction of this strain is described in detail in Wissmann et al., (1991) Genetics 128: 225-32). In this E. coli strain, tet operators direct the expression of divergently arranged β-galactosidase (lacZ) and Lac repressor (lacI) genes and the lac regulatory region directs the expression of a galactokinase (galK) gene on plasmid pWH414. Binding of Tet repressors to tet operators turns off transcription of the lacI and lacZ genes. The absence of Lac repressor allows for expression of the galK gene, which enables the E. coli strain to use galactose as a sole carbon source, which serves as one marker. The lacZ^− phenotype serves as a second marker. Thus, bacteria containing Tet repressors which bind to tet operators, have a Gal^+, lacZ^− phenotype. Bacteria containing wild-type Tet repressors have a Gal^+, lacZ^− phenotype in the absence of tetracycline. Modified “reverse” Tet repressors (revTetR) were selected based upon a Gal^+, lacZ^− phenotype in the presence of tetracycline.
The ability of each revTetR clone to bind to its cognate tet operator sequence and regulate transcription in a prokaryotic organism, Escherichia coli, in the presence and absence of a tetracycline analog (anhydrotetracycline, atc) was determined (Table 3, FIG. 2). The relative ratios of non-repressed to repressed levels of transcription for the 15 clones range from about 1.4-fold to about 50-fold at 28° C. and from about 1.3-fold to 40-fold at 37° C. For example, clone 4b comprising an amino acid substitution of glutamic acid for glycine at position 96 (e.g., SEQ ID NO. 24) repressed transcription 19-fold at 37° C. but to a less extent at 28° C. (5.7-fold, Table 3). Furthermore, clones 14, 5a and 7 comprising the arginine for glycine substitution at position 96 and further comprising a substitution or substitutions of serine for threonine at position 103 and valine for glutamic acid at position 114; leucine for proline at position 159; or glutamine to histidine at position 188, respectively, have pronouncedly different activities.
wherein each underlined base was present in approximately 85% of the oligonucleotides, while the remaining approximately 15% of the oligonucleotides contained one of the other three, non-wild type bases at that position. Similar mutagenic, partially randomized oligonucleotides were prepared for mutagenesis of the coding regions for amino acids 14-25 and 93-102. It was predicted that, according to a binomial distribution, each oligonucleotide would contain three to four mutations. […]

Row | Molecule | β-Galactosidase Activity, Cultured Without ATC | β-Galactosidase Activity, Cultured With ATC
1 | TetRrevAF7/1: revTetR(BD) Y93C G96R K98N (protein, Modified tetracycline repressor, revTetR(BD) Y93C G96R K98N) MSRLDKSKVINSALELLNEVGIEGLTTRKLAQKLGVEQPTLYWHVKNKRALLDALAVEILARHHDYSLPAAGESWQSFLRNNAMSFRRALLRCRDRANVHLGTRPDEKQYDTVETQLRFMTENGFSLRDGLYAISAVSHFTLGAVLEQQEHTAALTDRPAAPDENLPPLLREALQIMDSDDGEQAFLHGLESLIRGFEVQLTALLQIV | 89.3536 | 1.3792
2 | TetRrevAD3/8: revTetR(BD) L16L A56A V57E E58L I59N L60A (protein, Modified tetracycline repressor, revTetR(BD) L16L A56A V57E E58L I59N L60A) MSRLDKSKVINSALELLNEVGIEGLTTRKLAQKLGVEQPTLYWHVKNKRALLDALAELNVARHHDYSLPAAGESWQSFLRNNAMSFRRALLRYRDGAKVHLGTRPDEKQYDTVETQLRFMTENGFSLRDGLYAISAVSHFTLGAVLEQQEHTAALTDRPAAPDENLPPLLREALQIMDSDDGEQAFLHGLESLIRGFEVQLTALLQIV | 65.0174 | 1.9046
3 | TetRrevAD3/9: revTetR(BD) E15Q L17L L55M I59R (protein, Modified tetracycline repressor, revTetR(BD) E15Q L17L L55M I59R) MSRLDKSKVINSALQLLNEVGIEGLTTRKLAQKLGVEQPTLYWHVKNKRALLDAMAVERLARHHDYSLPAAGESWQSFLRNNAMSFRRALLRYRDGAKVHLGTRPDEKQYDTVETQLRFMTENGFSLRDGLYAISAVSHFTLGAVLEQQEHTAALTDRPAAPDENLPPLLREALQIMDSDDGEQAFLHGLESLIRGFEVQLTALLQIV | 60.2932 | 4.2427
4 | TetRrevAtc4-11: revTetR(BD) L55L A56P R62S (protein, Modified tetracycline repressor, revTetR(BD) L55L A56P R62S) MSRLDKSKVINSALELLNEVGIEGLTTRKLAQKLGVEQPTLYWHVKNKRALLDALPVEILASHHDYSLPAAGESWQSFLRNNAMSFRRALLRYRDGAKVHLGTRPDEKQYDTVETQLRFMTENGFSLRDGLYAISAVSHFTLGAVLEQQEHTAALTDRPAAPDENLPPLLREALQIMDSDDGEQAFLHGLESLIRGFEVQLTALLQIV | 103.132 | 17.479
5 | TetRrevAF2/15: revTetR(BD) V20G I22N R49Q A50T (protein, Modified tetracycline repressor, revTetR(BD) V20G I22N R49Q A50T) MSRLDKSKVINSALELLNEGGNEGLTTRKLAQKLGVEQPTLYWHVKNKQTLLDALAVEILARHHDYSLPAAGESWQSFLRNNAMSFRRALLRYRDGAKVHLGTRPDEKQYDTVETQLRFMTENGFSLRDGLYAISAVSHFTLGAVLEQQEHTAALTDRPAAPDENLPPLLREALQIMDSDDGEQAFLHGLESLIRGFEVQLTALLQIV | 82.5755 | 2.828
6 | TetRrevAD3/5: revTetR(BD) L17L N18K E19V I22T 53Y A54S (protein, Modified tetracycline repressor, revTetR(BD) L17L N18K E19V I22T 53Y A54S) MSRLDKSKVINSALELLKVVGTEGLTTRKLAQKLGVEQPTLYWHVKNKRALLYSLAVEILARHHDYSLPAAGESWQSFLRNNAMSFRRALLRYRDGAKVHLGTRPDEKQYDTVETQLRFMTENGFSLRDGLYAISAVSHFTLGAVLEQQEHTAALTDRPAAPDENLPPLLREALQIMDSDDGEQAFLHGLESLIRGFEVQLTALLQIV | 89.8129 | 1.1481
7 | TetRrevAF3/5: revTetR(BD) V20F G21R R49S (protein, Modified tetracycline repressor, revTetR(BD) V20F G21R R49S) MSRLDKSKVINSALELLNEFRIEGLTTRKLAQKLGVEQPTLYWHVKNKSTLLDALAVEILARHHDYSLPAAGESWQSFLRNNAMSFRRALLRYRDGAKVHLGTRPDEKQYDTVETQLRFMTENGFSLRDGLYAISAVSHFTLGAVLEQQEHTAALTDRPAAPDENLPPLLREALQIMDSDDGEQAFLHGLESLIRGFEVQLTALLQIV | 101.824 | 4.696
8 | TetRrevAD3/7: revTetR(BD) L17M E19D L52L D53Y A54A A56E (protein, Modified tetracycline repressor, revTetR(BD) L17M E19D L52L D53Y A54A A56E) MSRLDKSKVINSALELMNDVGIEGLTTRKLAQKLGVEQPTLYWHVKNKRALLYALEVEILARHHDYSLPAAGESWQSFLRNNAMSFRRALLRYRDGAKVHLGTRPDEKQYDTVETQLRFMTENGFSLRDGLYAISAVSHFTLGAVLEQQEHTAALTDRPAAPDENLPPLLREALQIMDSDDGEQAFLHGLESLIRGFEVQLTALLQIV | 73.4537 | 2.4531
9 | TetRrevAF2/16: revTetR(BD) E19V Y93C D95Y A97T K98N V99L L101L (protein, Modified tetracycline repressor, revTetR(BD) E19V Y93C D95Y A97T K98N V99L L101L) MSRLDKSKVINSALELLNVVGIEGLTTRKLAQKLGVEQPTLYWHVKNKRALLDALAVEILARHHDYSLPAAGESWQSFLRNNAMSFRRALLRCRYGTNLHLGTRPDEKQYDTVETQLRFMTENGFSLRDGLYAISAVSHFTLGAVLEQQEHTAALTDRPAAPDENLPPLLREALQIMDSDDGEQAFLHGLESLIRGFEVQLTALLQIV | 90.6438 | 2.622
10 | TetRrevAD3/6: revTetR(BD) V20G A56P I59L R62R (protein, Modified tetracycline repressor, revTetR(BD) V20G A56P I59L R62R) MSRLDKSKVINSALELLNEGGIEGLTTRKLAQKLGVEQPTLYWHVKNKRALLDALPVELLARHHDYSLPAAGESWQSFLRNNAMSFRRALLRYRDGAKVHLGTRPDEKQYDTVETQLRFMTENGFSLRDGLYAISAVSHFTLGAVLEQQEHTAALTDRPAAPDENLPPLLREALQIMDSDDGEQAFLHGLESLIRGFEVQLTALLQIV | 93.0552 | 1.6494
11 | TetRrevAF7/2: revTetR(BD) L14V E15V E23D K48K G96L G102A (protein, Modified tetracycline repressor, revTetR(BD) L14V E15V E23D K48K G96L G102A) MSRLDKSKVINSAVVLLNEVGIDGLTTRKLAQKLGVEQPTLYWHVKNKRALLDALAVEILARHHDYSLPAAGESWQSFLRNNAMSFRRALLRYRDLAKVHLATRPDEKQYDTVETQLRFMTENGFSLRDGLYAISAVSHFTLGAVLEQQEHTAALTDRPAAPDENLPPLLREALQIMDSDDGEQAFLHGLESLIRGFEVQLTALLQIV | 58.8637 | 3.7321
12 | TetRrevAF2/14: revTetR(BD) L14L E15A L16L L17V N18N; V20V G96V (protein, Modified tetracycline repressor, revTetR(BD) L14L E15A L16L L17V N18N; V20V G96V) MSRLDKSKVINSALALVNEVGIEGLTTRKLAQKLGVEQPTLYWHVKNKRALLDALAVEILARHHDYSLPAAGESWQSFLRNNAMSFRRALLRYRDVAKVHLGTRPDEKQYDTVETQLRFMTENGFSLRDGLYAISAVSHFTLGAVLEQQEHTAALTDRPAAPDENLPPLLREALQIMDSDDGEQAFLHGLESLIRGFEVQLTALLQIV | 90.5688 | 1.239
